Changes are numbered by the printed parent chain.
B1: A-030 (scFv format) (scFv, V domains shown)
VH: QVQLVQSGAEVKKPGASVKVSCKASGYTFTGYYMHWVRQAPGQGLEWMGWINPNSGNTGYAQKFQGRVTMTRNTSISTAYMELSSLRSEDTAVYYCARGGQQQLVLDDYWGQGTLVTVSS
VL: DIQLTQSPSTLSASVGDRVTITCRASQSIGGWLAWYQHKPGKAPKLLIYAASSLQSGVPSRFSGSGSGTDFTLTISSLQPEDFATYYCRQSYSTPPTFGQGTKVEIK
notes: scFv
B2: A-037 (scFv format) (scFv, V domains shown)
VH: B1 VH
VL: NFMLTQPHSVSESPGKTVTISCTGSSGSIASNYVQWYQQRPGSAPTTVIYEDNQRPSGVPDRFSGSIDSSSNSASLTISGLKTEDEADYYCQSYDSSNQRVFGGGTKLTVL
notes: scFv
B3: A-032 (scFv format) (scFv, V domains shown)
VH: B1 VH with I51M
VL: not shown
B4: A-017 (scFv format) (scFv, V domains shown)
VH: B1 VH
VL: DIVLTQSPASLSASVGDRITITCQASQDIRHHLNWFQHKPGKAPKLLISDSSNLETGVPSRFSGSGSGTDFSFTISRLQPEDIATYYCQQYDSLPRTFGQGTKLEIK
notes: scFv
B5: A-036 (scFv format) (scFv, V domains shown)
VH: B1 VH with N57G, G59N
VL: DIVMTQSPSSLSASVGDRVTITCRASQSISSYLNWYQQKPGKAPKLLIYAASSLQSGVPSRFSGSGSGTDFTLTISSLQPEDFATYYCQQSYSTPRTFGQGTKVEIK
notes: scFv
B6: A-014 (scFv format) (scFv, V domains shown)
VH: QVQLVQSGAEVKKPGASVKVSCKASGYTFNDYYIHWVRQAPGQGLEWMGWFNPSTGGANYAQKFQGRVTMTRDTSISTAYLEVSSLRSDDTAVYYCARGNSPDLDYWGQGTLVTVSS
VL: DIQMTQSPDSLTVSLGERATINCKSSQSLLHSSNNKNYLAWYQQRPGQPPKLLIYWASTRQSGVPDRFSGSGSGTDFTLTINSLQADDMAVYYCQQYYTTTPNTFGQGTKLEIK
notes: scFv
B7: A-031 (scFv format) (scFv, V domains shown)
VH: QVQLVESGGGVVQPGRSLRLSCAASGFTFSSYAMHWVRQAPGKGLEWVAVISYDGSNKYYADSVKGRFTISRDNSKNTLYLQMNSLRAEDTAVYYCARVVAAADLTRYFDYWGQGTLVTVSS
VL: EIVLTQSPGTVSLSPGERATLSCRASQSVPKNYLAWFQQKPGQAPRLVIHTASSRAPGIPDRFTGSGSGTDFTLTISRLEPEDFAVYYCQQYGTSPNTFGQGTKLDIK
notes: scFv
B8: C-023 (Fab format) (Fab, V domains shown)
VH: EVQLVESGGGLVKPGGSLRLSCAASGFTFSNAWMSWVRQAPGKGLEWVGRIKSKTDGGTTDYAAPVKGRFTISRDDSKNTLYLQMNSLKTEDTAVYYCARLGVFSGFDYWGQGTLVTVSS
VL: SYELTQPPSVSVSPGQTASITCSGDKLGDKYASWYQQKPGQSPVLVIYQDSKRPSGIPERFSGSNSGNTATLTISGTQAEDEADYYCHTWTHHSLAVVFGGGTKLTVL
notes: Fab in E. coli lysate
B9: C-015 (Fab format) (Fab, V domains shown)
VH: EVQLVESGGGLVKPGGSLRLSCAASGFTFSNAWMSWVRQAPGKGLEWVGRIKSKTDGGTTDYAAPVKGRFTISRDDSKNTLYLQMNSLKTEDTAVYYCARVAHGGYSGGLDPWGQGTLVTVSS
VL: B8 VL with H88S, T89S, W90T, T91G, H92T, H93A, S94H, L95T, A96L, V97A
notes: Fab in E. coli lysate
B10: C-021 (Fab format) (Fab, V domains shown)
VH: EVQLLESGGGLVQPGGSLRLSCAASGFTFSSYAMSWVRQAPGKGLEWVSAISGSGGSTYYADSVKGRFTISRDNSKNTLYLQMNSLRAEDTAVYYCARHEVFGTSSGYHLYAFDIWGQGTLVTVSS
VL: DIQMTQSPSSLSASVGDRVTITCRASQSISSYLNWYQQKPGKAPKLLIYAASSLQSGVPSRFSGSGSGTDFTLTISSLQPEDFATYYCQQWSGLPLTFGQGTKVEIK
notes: Fab in E. coli lysate
B11: C-002 (Fab format) (Fab, V domains shown)
VH: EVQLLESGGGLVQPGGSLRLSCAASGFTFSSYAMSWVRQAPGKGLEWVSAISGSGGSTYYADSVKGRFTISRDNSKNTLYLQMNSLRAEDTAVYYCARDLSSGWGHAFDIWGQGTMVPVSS
VL: ASVLTQPPSVSAAPGQKVTISCSGSSSNIGNNYVSWYQQLPGTAPKLLIYDNNKRPSGIPDRFSGSKSGTSATLGITGLQAEDEADYYCLSYTTSEHHLVFGGGTKLTVL
notes: Fab in E. coli lysate

Each binder was assayed against T1, human IGSF11 (VSIG3) on cells (human, UniProt Q5DX21 23-431) (assay: FACS % positive cells, scFv).
T1 sequence: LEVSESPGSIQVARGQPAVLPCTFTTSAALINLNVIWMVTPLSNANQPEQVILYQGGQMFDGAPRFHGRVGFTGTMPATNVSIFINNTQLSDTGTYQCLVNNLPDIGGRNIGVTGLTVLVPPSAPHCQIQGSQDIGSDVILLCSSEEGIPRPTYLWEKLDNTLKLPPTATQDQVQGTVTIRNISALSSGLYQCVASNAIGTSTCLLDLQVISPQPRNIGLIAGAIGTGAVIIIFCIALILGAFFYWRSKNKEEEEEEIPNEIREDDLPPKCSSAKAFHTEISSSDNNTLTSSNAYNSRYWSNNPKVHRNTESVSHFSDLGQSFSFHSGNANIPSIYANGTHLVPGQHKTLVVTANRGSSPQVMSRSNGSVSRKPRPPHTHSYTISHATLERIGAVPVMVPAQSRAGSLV
B1: binds.
B2: binds.
B3: binds.
B4: binds.
B5: binds.
B6: binds.
B7: binds.

The binders below were run against T2, Streptavidin (UniProt P22629 37-163, limits assumed) (assay: ELISA, scFv).
T2 construct: also called negative antigen; irrelevant antigen
T2 sequence (P22629 37-163 limits assumed): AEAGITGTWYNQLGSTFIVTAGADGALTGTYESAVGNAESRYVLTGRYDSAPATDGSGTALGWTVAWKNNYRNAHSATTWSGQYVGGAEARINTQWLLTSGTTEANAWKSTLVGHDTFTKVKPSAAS
B1: no binding (tested: <0.025 or <0.05 RFU).
B2: no binding (tested: <0.025 or <0.05 RFU).
B3: no binding (tested: <0.025 or <0.05 RFU).
B4: no binding (tested: <0.025 or <0.05 RFU).
B5: no binding (tested: <0.025 or <0.05 RFU).
B6: no binding (tested: <0.025 or <0.05 RFU).
B7: no binding (tested: <0.025 or <0.05 RFU).

What follows are binders tested against T2, Streptavidin (assay: ELISA, Fab).
Method: (§1) In order to identify IGSF11-specific binding ABPs, monoclonal Fabs expressed from E. coli were generated from the enriched set of anti-IGFS11 antibody-expressing phage. After bacterial lysis, the Fabs were tested for their binding properties and cross-reactivity profile on recombinant ECD-IGSF11 (human, mouse and cynomolgus monkey) by standard ELISA. Briefly, biotinylated recombinant ECD-IGSF11 from human, mouse, or cynomolgus monkey were immobilized at 2 ug/mL on a streptavidin-coated 384-well Maxisorp plate. The surface was blocked with 2% (w/v) skim milk powder in PBST. After three wash cycles with PBST, a bacterial lysate of each of the anti-IGSF11 Fabs in 2% (w/v) skim milk powder was applied to the immobilized IGSF11 and incubated for 1 h. After removing all unbound Fab by 3 wash cycles with PBST, bound Fab antibodies were detected with a goat anti-human Fab antibody conjugated with horseradish peroxidase. After three wash cycles with PBST the ELISA was developed with TMB substrate.
B8 was tested, and the A450 was less than 0.1.
In the case of B9, the A450 is reported as less than 0.1.
For B10, the A450 was less than 0.1.
B11 gave an A450 of less than 0.1.

Each binder was assayed against T3, recombinant murine IGSF11 extracellular domain (ECD) (mouse, UniProt P0C673 23-240, biotinylated) (assay: ELISA, Fab).
T3 construct: also called Mouse IGSF11; murine ECD-IGSF11
T3 sequence: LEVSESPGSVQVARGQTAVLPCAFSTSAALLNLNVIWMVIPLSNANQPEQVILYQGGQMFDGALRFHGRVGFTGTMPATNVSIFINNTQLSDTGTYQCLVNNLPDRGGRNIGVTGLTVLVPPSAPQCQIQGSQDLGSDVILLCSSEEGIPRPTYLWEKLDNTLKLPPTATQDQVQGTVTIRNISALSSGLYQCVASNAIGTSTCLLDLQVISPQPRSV
Method: as §1
In the case of B8, the A450 is reported as less than 1.
B9 showed an A450 of less than 1.
Binder B10 has an A450 of less than 1.
B11 gave an A450 of less than 1.

From US20240010720A1 (IOMX THERAPEUTICS, published 2024)
